Here are results for 21 variants from the RNAGym collection of RNA variant scans (doi:10.1073/pnas.2313332121).

First the molecules themselves.
B1: TPR t1 (parent)
chain: GACCAAUCUGCCCUCAGAGCUCGAGAACAUCUUCGGAUGCAGAGGAGGCAGGCUUCGGUGGCGCGAUAGCGCCAACGUCCUCAACCUCCAAUGCAUCCCACCACAUGAUGAUGCCUGAAGAGCCUUGGUUUUUUG

The variants in this series derive from B1. The series is described as follows: polymerase ribozyme fitness, log enrichment relative to wild type (log ratio); higher = more active; in vitro selection for triplet polymerase activity. In outline: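 The heterodimeric triplet polymerase ribozyme's subunits were each mutagenized into PCR-built libraries and transcribed. Every library was selected once, in triplicate, by annealing with a biotinylated primer, the partner subunit and triplets, incubating frozen at −7 °C, gel-excising extended constructs, capturing on streptavidin beads and running RT-PCR. Input and output libraries were Illumina-sequenced, with genotypes kept only at ≥10 input reads and ≥1 read per output. Fitness, from inverse-variance-weighted replicate averages, is the base-2 logarithm of genotype enrichment over wild-type enrichment.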
GACCAAUCUGCCCUCAGAGCUCGAGAACAUCUUCGCAUGCAGAAGAGGCAGGCUUCGGUGGCGCGAUAGCACCAGCGUCCUCAACCUCAAAUGCAUCCCACCACAUGAUGAUGCCUGAAGAGCCUUGGUUUUUUG [G36C G44A G71A A75G C89A]: the “polymerase ribozyme fitness (log ratio)” value was -3.61.
GACCAAUCUGCCCUCAGAGCUCGAGAACAUCUUCGAAUGCAGAGGAGGCAGGCUUCGGUGGCGCGAUAACGCGAACGUCCUCAACCUCCAAUGCAUCCCACCACAUGAUGAUGCCUGAAAAGCCUUGGUUUUUUG [G36A G69A C73G G120A]: the “polymerase ribozyme fitness (log ratio)” value is -5.29.
On to GACCAAUCUGCCCUCAGAGCUCGAGAACAUCUUCGAAUGCAGAGGAGGCAGGCUUCGGUGGCGCGAUAGCUCCAACGACCUCAACCUCCAAUGCAUCCCACCACAUGAUGAUGCCUGAAGAGCCUUGGUUUUUUG [G36A G71U U78A], for which the “polymerase ribozyme fitness (log ratio)” value is -1.53.
On to GACCAAUCUGCCCUCAGAGCUCGAGAACAUCUUCGUAUGCAGAGGAGGCAGGCUUCGGUGGCGCGAUAGCGCCAACGUCCUCAACCUCCAUUGCAUCCCACCACAUGAUGAUGCCUGAAGAGCCUUGGUUUUUUG [G36U A91U], for which the “polymerase ribozyme fitness (log ratio)” value is -2.67.
With GACCAAUCUGCCCUCAGAGCUCGAGAACAUCUUCGCAUGCAGAGGAGGCAGGCUUCGGUGGCGCGAUAACGCCAACGUCCUCAACCUCCAAUGCAUCCCACCACAUGAUGAGGCCUAAAGAGCCUUGGUUUUUUG [G36C G69A U112G G117A] the figure was -6.31; with GACCAAUCUGCCCUCAGAGCUCGAGAACAUCUUCGCAUGCAUAGGAGGCAGGCUUGGGUGGCGCGAUAGCGCCCACGUCCUCAACCUCCAAUGCAUCCCACCACAUUAUGAAGACUGAAGAGCCUUGGUUUUUUG [G36C G42U C56G A74C G107U U112A C114A], -7.54; with GACCAAUCUGCCCUCAGAGCUCGAGAACAUCUUCGAAUGCAGAGGAGGCAGGCUUCGGUGGCGCGAUAACGCCAACGUCCUCAACCUCCAAUGCAUCCCACCACAUGAUGAUGCCUGAAGAGCCUUGGUUUUUUG [G36A G69A], -3.69.
With GACCAAUCUGCCCUCAGAGCUCGAGAACAUCUUCGAAUGCAGAGGAGGCAGGCUUCGGUGGCGCGAUAGCGCCAACGUCCUCAACCUCCAAUGCAUCCCACCACAUGAUGAUGCCUGAAGAGCCAUGGUUUUUUG [G36A U125A] the figure was -1.27; with GACCAAUCUGCCCUCAGAGCUCGAGAACAUCUUCGAAUGCAGAGGAGGCAGGCUUCGGUCGCGCGAUAGCGCCAACGCUCUCAAACUCCGAUGCAUCCCACCACAUGAUGAUGCCUGAAGAGCCUUGGUUUUUUG [G36A G60C U78C C79U C85A A90G], -3.89.
With GACCAAUCUGCCCUCAGAGCUCGAGAACAUCUUCGAAUGCAGAGGAGGCAGGCUUCGGUGGCGCGAUAGCGCCAACCUCCUCAACCUCCAAUGCAUCCCACCACAUGAUGAUGCCUGAAGAGCCUUGGUUUUUUG [G36A G77C] the figure was -1.72; with GACCAAUCUGCCCUCAGAGCUCGAGAACAUCUUCGCAUGCAGAGGGGGCAGGCUUCGGUGGCUCGAUAGCGCCAACGUCCUCAAUCUCCAAUGCAUCCCACCACAUGAUGAUGUCUGAAGAGCCUUGGUUUUUUG [G36C A46G G63U C85U C114U], -5.92.
Regarding GACCAAUCUGCCCUCAGAGCUCGAGAACAUCUUCGCAUGCAGAGGAGGCAGGCUUCGGUGGCGCGAUAGCGCCAACGUCCUCAACCUCCAAUGCAUCCCACCAUAUGAUGAUGCCUGAAGAGCCUUGGUUUUUUG [G36C C104U], the “polymerase ribozyme fitness (log ratio)” value is -1.1.
The same measure for GACCAAUCUGCCCUCAGAGCUCGAGAACAUCUUCGAAUGCAGAGGAGGCAGGCUUCGGUGGCGCGAUAGCACCAACGUCCUCAACCUCCAAUGAAUCCCACCACAUGAUGAUGCCUGAAGAGCCUUGGUUUUUUG [G36A G71A C94A]: -5.5; for GACCAAUCUGCCCUCAGAGCUCGAGAACAUCUUCGCAUGCAGAGGAGGCAGGCUUCGGUGGCGCGAUAGCGCCAACGUCCUCAACCUCCAAUGCAUCCCACCACAUGAUGAUUCCUGAAGAGCCUUGGAUUUUUG [G36C G113U U129A]: -4.27.
On to GACCAAUCUGCCCUCAGAGCUCGAGAACAUCUUCGCAUGCAGAGGAGGCAGGCUUCGGUGGCGCGAUAGCGCCAACGUCCUCAACCUACAAUGCAUCCCACCACAUGAUGAUGCCUGAAGAGCCUUGGUUUUUUG [G36C C88A], for which the “polymerase ribozyme fitness (log ratio)” value was -2.1.
GACCAAUCUGCCCUCAGAGCUCGAGAACAUCUUCGAAUGCAGAGGAGGCAGGCUUCGGUGGCGCGAUAGCACCAACGUCCUCAACCUCCAAUGCAUCCCACCACAUGAUGAUGCCUGAAGAGCCUUGGUUUUUUG [G36A G71A]: the “polymerase ribozyme fitness (log ratio)” value is -1.64.
As for GACCAAUCUGCCCUCAGAGCUCGAGAACAUCUUCGAAUGCAGAGGAGGCAGGCUUCGGUGUCGCGAUAGCGCCAACGUCCUCAACCUCCAAUGCAUCCCACCACAUGAUGAUGCCUGAAGAGCCUUGGUUUUUUG [G36A G61U], the “polymerase ribozyme fitness (log ratio)” value amounted to 0.0512.
The same measure for GACCAAUCUGCCCUCAGAGCUCGAGAACAUCUUCGCAUGCAGAGGAGGCAGGCUUCGGUGGCGCGAUAACACCAACGUCCGCAACCUACAAUCCAUCCAACCACAUGAUGAUGCCUGAAGAGUCUUGGUUUUUUG [G36C G69A G71A U81G C88A G93C C99A C123U]: -6.5; for GACCAAUCUGCCCUCAGAGCUCGAGAACAUCUUCGCAUGCAGAGGAGGCAGGCUUGGGUGGCGCGAUAGCGUCAACGUCCUCAACCUCCAAUGCAUCCCACCACAUGAUGAUGCCUGAAGAGCCUUGGUUUUUUG [G36C C56G C72U]: -2.79.
As to GACCAAUCUGCCCUCAGAGCUCGAGAACAUCUUCGCAUGCAGAGGAAGCAGGCUUAGGUGGCGCGAUAGCACCAACGGCCUCAACCUCCAAUGCAUCCCACCACAUGAUGAUGCUUGGAGAGCCUUGGUUUUUUG [G36C G47A C56A G71A U78G C115U A118G], the “polymerase ribozyme fitness (log ratio)” value was -6.68.
Take GACCAAUCUGCCCUCAGAGCUCGAGAACAUCUUCGCAUGCAGAGGAGGCAGGCUUCGGUGGCGCGAUAGCGCCAAAGUCCUCAACCUCCAAUGCAUCCCACCACAAGAUAAUGCCUGAAGAGCCUUGGUUUUUUG [G36C C76A U106A G110A]: the “polymerase ribozyme fitness (log ratio)” value was -4.36.
